# Data from article PMC4577081 (PLoS ONE, 2015).
# Assays:
# [1] = target: T1, human CD47 on stably transfected rat YB2/0 cells (Homo sapiens, UniProt Q08722); assay: flow cytometry on cells; hybridoma clones (supernatants) tested by FACS on parental or human CD47-transfected rat YB2/0 cells; settings: partners not purified
# T1 construct: human CD47 expressed on the surface of YB2/0 cells; also called CD47-transfected YB2/0 cells; source: rat YB2/0 cells, stably transfected, on cells
# [2] = target: T2, human CD47/mFc fusion protein (extracellular domain of human CD47 fused to mouse Fc) (human, UniProt Q08722); assay: ELISA; competition: plates coated with 1 μg/ml huCD47/mFc; 10 μg/ml biotin-labeled mouse 5F9 with various concentrations of unlabeled Hu5F9-G4, room temperature 1 hr; HRP-streptavidin; settings: both partners purified
# T2 construct: human CD47 extracellular domain, cloned from a full-length human CD47 cDNA (Open Biosystems); also called huCD47/mFc; hCD47/mFc; source: purified recombinant
# [3] = target: T3, cynoCD47/mFc fusion protein (extracellular domain of cynomolgus CD47 fused to mouse Fc) (Macaca fascicularis, UniProt A0A2K5X4I2); assay: SPR; Biacore 2000; antibody amine coupled to a CM4 chip, CD47 constructs as analyte; 10 mM HEPES pH 7.4, 150 mM NaCl, 0.005% tween-20; 25°C; global fit to a 1:1 model with mass transport; settings: both partners purified
# T3 construct: cynomolgus monkey CD47 extracellular domain, cDNA cloned from a cynomolgus spleen cDNA library (BioChain); differs from human CD47 at 3 amino acids in the extracellular domain; also called cyno-CD47 Fc fusion protein; cynomolgus monkey CD47
binder,measurement,setting,value
"mouse anti-human CD47 monoclonal antibody 5F9 (antibody, V domains shown, mouse 5F9 VH (IGHV1 family); mouse heavy chain constant region; mouse 5F9 VL (IGKV1 subgroup); mouse light chain constant region; not described beyond the IGKV1 V segment; also called mouse 5F9; parental mouse 5F9; source: hybridoma (spleen cells of immunized Balb/c mice fused with SP2/0 cells); supernatant in the FACS screen; copies: 2 + 2) VH: QVQLQQPGAELVKPGASVMMSCKASGYTFTNYNMHWVKQTPGQGLEWIGTIYPGNDDTSYNQKFKDKATLTADKSSSAAYMQLSSLTSEDSAVYYCARGGYRAMDYWGQGTSVTVSS VL: DVLMTQTPLSLPVSLGDQASISCRSSQSIVYSNGNTYLGWYLQKPGQSPKLLIYKVSNRFSGVPDRFSGSGSGTDFTLKISRVEAEDLGVYHCFQGSHVPYTFGGGTKVEIK",binding result,[1],binds
same,binding result,[2],binds
"Hu5F9-G4 (humanized 5F9 antibody, human IgG4 with Ser228Pro) (antibody, V domains shown) VH: QVQLVQSGAEVKKPGASVKVSCKASGYTFTNYNMHWVRQAPGQRLEWMGTIYPGNDDTSYNQKFKDRVTITADTSASTAYMELSSLRSEDTAVYYCARGGYRAMDYWGQGTLVTVSS VL: DIVMTQSPLSLPVTPGEPASISCRSSQSIVYSNGNTYLGWYLQKPGQSPQLLIYKVSNRFSGVPDRFSGSGSGTDFTLKISRVEAEDVGVYYCFQGSHVPYTFGQGTKLEIK",Kd,[3],0.01 nM
